# Laboratory results as given in the supplement of paper PMC10065799, “High-throughput profiling of sequence recognition by tyrosine kinases and SH2 domains using bacterial peptide display” (eLife, 2023).
# Tested on: c-Abl (mouse)
# Assay: phosphorylation enrichment, bacterial display (enrichment ratio); higher = better substrate or ligand; peptides without Tyr show the background
# 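Also: 11-residue human phosphosite peptides and single-mutation variants displayed on the E. coli surface, counted by deep sequencing, each peptide's frequency after selection divided by its frequency in the unselected input library; frequency after pTyr selection over input frequency; kinase dosed for 20-30% of maximal phosphorylation in three min.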
row,Sequence,phosphorylation enrichment
1,KSEKVYTRHGV [FLOT1_Y56],0.401
2,KFLVGYEMLAQ [GALT_Y339_M336L],0.578
3,QWRTKYEMDAI [MYH7_Y1375_T1377M],0.5
4,GGCQEYTGAPY [NAXD_Y85],0.699
5,CITIHYNFMCN [TP53_Y234_T230I_YF],0.661
6,QLQTTYPSSDN [MAX_Y115_N114T],0.566
7,FTGDIYSSSNL [LZTR1_Y141_N143S_YF],2.35
8,QPGDICHQTWA [GBA_Y244_Y244C],0.741
9,VIERSYTSADG [DHCR7_Y382_C380R],0.565
10,KVKGEYDMTVP [AHNAK_Y964],0.372
11,SVQVEYMKTIL [GLYATL2_Y127_D126E],0.484
12,EKLQQYLAPGM [EPHB3_Y600_I601L],0.732
13,DVAKEYGHLLP [HRC_Y99_S96A],0.555
14,KACNPYKPPGP,0.524
15,VFGVSYDEYRY [CFTR_Y512_I507V],0.566
16,NFFEFYVDDPP [GCHFR_Y48_YF],0.836
17,RQGKDYVGAIP [KDR_Y951],0.636

row,Sequence,phosphorylation enrichment
1,STASGYSDVTD [DTX2_Y425],0.61
2,AGQEDCDRLRP [CDC42_Y64_Y64C],0.609
3,AFPGEYIPTVF [RAC1_Y32],0.689
4,VGNPAYRSFSN [IL4R_Y497_A492V],0.478
5,VERRVYAEDPF [PCCA_Y401_C398R_YF],0.648
6,GEIQEYGAPLD [ABCC1_Y1508_S1512L],0.743
7,EFISESCGEII [EZH2_Y641_Y641S],0.783
8,IHADIYRWFNI [MARS1_Y344],6.74
9,LRYDVYGGENE [STOX1_Y610_E608D],2.15
10,LDLSFYPTSSS [EMD_Y182_YF],1.69
11,YGAHNHHPLPV [OAT_Y55_Y55H],0.671
12,SSPVPYLSPET [TJP1_Y931],0.646
13,ADTETYLLEKS [MYH7_Y266_I263T],0.709
14,KFDLMYAKWAF [TUBA3E_Y399],1.68
15,FKELVYETVRV [FSHB_Y76],18
16,TSSAIYMNLAS [GATAD2B_Y317],3.29

# Molecular target: Jak2 (UniProt O60674)
# Assay: as above
# Sequence of Jak2 (O60674 whole entry, looked up): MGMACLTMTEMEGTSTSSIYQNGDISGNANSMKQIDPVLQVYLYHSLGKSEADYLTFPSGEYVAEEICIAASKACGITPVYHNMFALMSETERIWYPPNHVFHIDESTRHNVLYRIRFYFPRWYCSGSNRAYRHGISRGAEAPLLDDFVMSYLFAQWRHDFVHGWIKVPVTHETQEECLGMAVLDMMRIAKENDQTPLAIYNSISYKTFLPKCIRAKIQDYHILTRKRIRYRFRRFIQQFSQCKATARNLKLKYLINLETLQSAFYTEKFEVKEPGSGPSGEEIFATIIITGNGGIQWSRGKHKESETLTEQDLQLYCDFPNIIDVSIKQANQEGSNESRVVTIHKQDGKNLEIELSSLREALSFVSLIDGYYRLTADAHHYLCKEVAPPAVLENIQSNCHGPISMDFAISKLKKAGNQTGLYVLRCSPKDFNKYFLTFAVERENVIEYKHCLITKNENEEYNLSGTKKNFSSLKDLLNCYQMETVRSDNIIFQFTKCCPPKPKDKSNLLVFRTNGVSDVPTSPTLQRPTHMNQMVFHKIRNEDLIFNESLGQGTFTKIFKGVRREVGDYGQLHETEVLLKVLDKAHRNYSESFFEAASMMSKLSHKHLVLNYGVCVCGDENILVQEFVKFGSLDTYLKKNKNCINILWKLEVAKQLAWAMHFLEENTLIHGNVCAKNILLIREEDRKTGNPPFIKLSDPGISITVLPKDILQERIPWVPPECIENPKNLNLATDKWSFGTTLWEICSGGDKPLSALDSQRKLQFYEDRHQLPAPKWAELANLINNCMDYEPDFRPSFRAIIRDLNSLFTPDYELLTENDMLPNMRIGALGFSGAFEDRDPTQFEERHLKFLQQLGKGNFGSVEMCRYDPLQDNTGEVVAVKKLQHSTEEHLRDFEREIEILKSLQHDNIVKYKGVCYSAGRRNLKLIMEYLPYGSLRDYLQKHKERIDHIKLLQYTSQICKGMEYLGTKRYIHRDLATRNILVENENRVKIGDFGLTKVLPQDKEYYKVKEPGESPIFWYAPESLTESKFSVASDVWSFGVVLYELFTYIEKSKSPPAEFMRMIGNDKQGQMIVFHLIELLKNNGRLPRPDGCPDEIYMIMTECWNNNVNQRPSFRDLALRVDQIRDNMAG
row,Sequence,phosphorylation enrichment
1,KSEKVYTRHGV [FLOT1_Y56],0.444
2,KFLVGYEMLAQ [GALT_Y339_M336L],0.747
3,QWRTKYEMDAI [MYH7_Y1375_T1377M],0.519
4,GGCQEYTGAPY [NAXD_Y85],0.83
5,CITIHYNFMCN [TP53_Y234_T230I_YF],1.31
6,QLQTTYPSSDN [MAX_Y115_N114T],0.853
7,FTGDIYSSSNL [LZTR1_Y141_N143S_YF],0.588
8,QPGDICHQTWA [GBA_Y244_Y244C],0.906
9,VIERSYTSADG [DHCR7_Y382_C380R],0.578
10,KVKGEYDMTVP [AHNAK_Y964],0.543
11,SVQVEYMKTIL [GLYATL2_Y127_D126E],0.612
12,EKLQQYLAPGM [EPHB3_Y600_I601L],0.57
13,DVAKEYGHLLP [HRC_Y99_S96A],0.781
14,KACNPYKPPGP,0.881
15,VFGVSYDEYRY [CFTR_Y512_I507V],0.761
16,NFFEFYVDDPP [GCHFR_Y48_YF],1.12
17,RQGKDYVGAIP [KDR_Y951],0.656

row,Sequence,phosphorylation enrichment
1,STASGYSDVTD [DTX2_Y425],0.661
2,AGQEDCDRLRP [CDC42_Y64_Y64C],0.682
3,AFPGEYIPTVF [RAC1_Y32],0.924
4,VGNPAYRSFSN [IL4R_Y497_A492V],0.608
5,VERRVYAEDPF [PCCA_Y401_C398R_YF],0.674
6,GEIQEYGAPLD [ABCC1_Y1508_S1512L],1.03
7,EFISESCGEII [EZH2_Y641_Y641S],1.04
8,IHADIYRWFNI [MARS1_Y344],1.12
9,LRYDVYGGENE [STOX1_Y610_E608D],2.78
10,LDLSFYPTSSS [EMD_Y182_YF],0.976
11,YGAHNHHPLPV [OAT_Y55_Y55H],0.62
12,SSPVPYLSPET [TJP1_Y931],0.719
13,ADTETYLLEKS [MYH7_Y266_I263T],1.01
14,KFDLMYAKWAF [TUBA3E_Y399],1
15,FKELVYETVRV [FSHB_Y76],0.894
16,TSSAIYMNLAS [GATAD2B_Y317],0.997

# Molecular target: MERTK (UniProt Q12866)
# Assay: as above
# Sequence of MERTK (Q12866 whole entry, looked up): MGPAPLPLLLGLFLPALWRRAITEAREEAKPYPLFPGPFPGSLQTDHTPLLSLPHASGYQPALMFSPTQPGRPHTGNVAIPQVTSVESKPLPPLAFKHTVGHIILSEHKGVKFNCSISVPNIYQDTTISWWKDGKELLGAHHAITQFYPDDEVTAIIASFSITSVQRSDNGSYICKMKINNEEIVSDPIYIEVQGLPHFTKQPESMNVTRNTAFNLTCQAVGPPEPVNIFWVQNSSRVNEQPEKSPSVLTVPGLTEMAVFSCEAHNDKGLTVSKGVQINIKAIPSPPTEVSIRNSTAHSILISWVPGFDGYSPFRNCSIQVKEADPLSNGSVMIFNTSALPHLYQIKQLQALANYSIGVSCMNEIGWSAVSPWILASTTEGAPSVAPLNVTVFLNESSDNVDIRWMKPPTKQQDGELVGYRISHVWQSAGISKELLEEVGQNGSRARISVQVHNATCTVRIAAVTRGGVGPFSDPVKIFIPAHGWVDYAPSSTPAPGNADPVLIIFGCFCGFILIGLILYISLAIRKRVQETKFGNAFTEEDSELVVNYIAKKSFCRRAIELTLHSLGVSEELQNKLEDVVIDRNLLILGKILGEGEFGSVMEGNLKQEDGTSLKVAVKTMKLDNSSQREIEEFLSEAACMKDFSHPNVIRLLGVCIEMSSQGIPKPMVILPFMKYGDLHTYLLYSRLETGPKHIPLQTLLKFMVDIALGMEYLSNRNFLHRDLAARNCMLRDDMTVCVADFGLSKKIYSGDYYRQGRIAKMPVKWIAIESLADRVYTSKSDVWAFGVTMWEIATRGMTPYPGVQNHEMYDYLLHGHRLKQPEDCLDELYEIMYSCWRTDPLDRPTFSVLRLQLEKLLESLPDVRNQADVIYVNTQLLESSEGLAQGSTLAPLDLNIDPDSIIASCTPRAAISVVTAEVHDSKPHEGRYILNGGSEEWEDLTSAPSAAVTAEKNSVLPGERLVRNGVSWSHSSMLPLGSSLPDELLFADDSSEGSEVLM
row,Sequence,phosphorylation enrichment
1,KSEKVYTRHGV [FLOT1_Y56],0.427
2,KFLVGYEMLAQ [GALT_Y339_M336L],0.323
3,QWRTKYEMDAI [MYH7_Y1375_T1377M],0.384
4,GGCQEYTGAPY [NAXD_Y85],0.409
5,CITIHYNFMCN [TP53_Y234_T230I_YF],0.456
6,QLQTTYPSSDN [MAX_Y115_N114T],0.357
7,FTGDIYSSSNL [LZTR1_Y141_N143S_YF],1.7
8,QPGDICHQTWA [GBA_Y244_Y244C],0.306
9,VIERSYTSADG [DHCR7_Y382_C380R],0.395
10,KVKGEYDMTVP [AHNAK_Y964],0.463
11,SVQVEYMKTIL [GLYATL2_Y127_D126E],0.429
12,EKLQQYLAPGM [EPHB3_Y600_I601L],0.487
13,DVAKEYGHLLP [HRC_Y99_S96A],0.402
14,KACNPYKPPGP,0.543
15,VFGVSYDEYRY [CFTR_Y512_I507V],0.477
16,NFFEFYVDDPP [GCHFR_Y48_YF],0.531
17,RQGKDYVGAIP [KDR_Y951],0.485

row,Sequence,phosphorylation enrichment
1,STASGYSDVTD [DTX2_Y425],0.355
2,AGQEDCDRLRP [CDC42_Y64_Y64C],0.364
3,AFPGEYIPTVF [RAC1_Y32],0.474
4,VGNPAYRSFSN [IL4R_Y497_A492V],0.374
5,VERRVYAEDPF [PCCA_Y401_C398R_YF],0.384
6,GEIQEYGAPLD [ABCC1_Y1508_S1512L],0.467
7,EFISESCGEII [EZH2_Y641_Y641S],0.419
8,IHADIYRWFNI [MARS1_Y344],5
9,LRYDVYGGENE [STOX1_Y610_E608D],1.18
10,LDLSFYPTSSS [EMD_Y182_YF],0.596
11,YGAHNHHPLPV [OAT_Y55_Y55H],0.516
12,SSPVPYLSPET [TJP1_Y931],0.409
13,ADTETYLLEKS [MYH7_Y266_I263T],0.385
14,KFDLMYAKWAF [TUBA3E_Y399],3.02
15,FKELVYETVRV [FSHB_Y76],9.94
16,TSSAIYMNLAS [GATAD2B_Y317],8.39

# Molecular target: FGFR1 (UniProt P11362)
# Assay: as above
# Sequence of FGFR1 (P11362 whole entry, looked up): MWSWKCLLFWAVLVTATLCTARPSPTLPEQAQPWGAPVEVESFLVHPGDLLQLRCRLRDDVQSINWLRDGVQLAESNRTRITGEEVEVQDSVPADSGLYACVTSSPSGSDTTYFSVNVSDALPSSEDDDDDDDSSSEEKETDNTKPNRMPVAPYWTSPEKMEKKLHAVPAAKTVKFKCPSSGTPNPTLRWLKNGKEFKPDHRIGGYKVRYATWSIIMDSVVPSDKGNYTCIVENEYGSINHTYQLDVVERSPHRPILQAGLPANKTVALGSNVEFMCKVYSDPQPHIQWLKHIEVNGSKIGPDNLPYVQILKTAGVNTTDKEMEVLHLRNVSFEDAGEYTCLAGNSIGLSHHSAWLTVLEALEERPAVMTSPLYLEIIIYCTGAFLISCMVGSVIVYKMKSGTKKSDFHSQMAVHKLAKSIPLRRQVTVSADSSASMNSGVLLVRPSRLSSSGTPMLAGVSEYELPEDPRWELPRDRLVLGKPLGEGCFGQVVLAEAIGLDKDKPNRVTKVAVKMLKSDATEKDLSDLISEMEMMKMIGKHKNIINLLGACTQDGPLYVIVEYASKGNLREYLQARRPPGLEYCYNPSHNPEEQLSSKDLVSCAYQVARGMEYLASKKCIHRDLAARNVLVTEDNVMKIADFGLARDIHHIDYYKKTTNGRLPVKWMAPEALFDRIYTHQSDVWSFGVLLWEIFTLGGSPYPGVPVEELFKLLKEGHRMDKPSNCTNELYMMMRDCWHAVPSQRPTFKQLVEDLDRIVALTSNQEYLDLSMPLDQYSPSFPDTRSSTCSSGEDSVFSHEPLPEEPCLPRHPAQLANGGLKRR
row,Sequence,phosphorylation enrichment
1,KSEKVYTRHGV [FLOT1_Y56],0.439
2,KFLVGYEMLAQ [GALT_Y339_M336L],0.408
3,QWRTKYEMDAI [MYH7_Y1375_T1377M],0.58
4,GGCQEYTGAPY [NAXD_Y85],0.627
5,CITIHYNFMCN [TP53_Y234_T230I_YF],0.582
6,QLQTTYPSSDN [MAX_Y115_N114T],0.433
7,FTGDIYSSSNL [LZTR1_Y141_N143S_YF],0.494
8,QPGDICHQTWA [GBA_Y244_Y244C],0.507
9,VIERSYTSADG [DHCR7_Y382_C380R],0.414
10,KVKGEYDMTVP [AHNAK_Y964],0.469
11,SVQVEYMKTIL [GLYATL2_Y127_D126E],0.437
12,EKLQQYLAPGM [EPHB3_Y600_I601L],0.466
13,DVAKEYGHLLP [HRC_Y99_S96A],0.436
14,KACNPYKPPGP,0.462
15,VFGVSYDEYRY [CFTR_Y512_I507V],0.434
16,NFFEFYVDDPP [GCHFR_Y48_YF],0.741
17,RQGKDYVGAIP [KDR_Y951],1.44

row,Sequence,phosphorylation enrichment
1,STASGYSDVTD [DTX2_Y425],0.497
2,AGQEDCDRLRP [CDC42_Y64_Y64C],0.476
3,AFPGEYIPTVF [RAC1_Y32],0.618
4,VGNPAYRSFSN [IL4R_Y497_A492V],0.412
5,VERRVYAEDPF [PCCA_Y401_C398R_YF],0.429
6,GEIQEYGAPLD [ABCC1_Y1508_S1512L],0.598
7,EFISESCGEII [EZH2_Y641_Y641S],0.567
8,IHADIYRWFNI [MARS1_Y344],9.43
9,LRYDVYGGENE [STOX1_Y610_E608D],1.09
10,LDLSFYPTSSS [EMD_Y182_YF],0.991
11,YGAHNHHPLPV [OAT_Y55_Y55H],0.408
12,SSPVPYLSPET [TJP1_Y931],0.482
13,ADTETYLLEKS [MYH7_Y266_I263T],0.57
14,KFDLMYAKWAF [TUBA3E_Y399],0.669
15,FKELVYETVRV [FSHB_Y76],3.22
16,TSSAIYMNLAS [GATAD2B_Y317],3
